One substance from paper PMC7036032 can be followed below.

The experiment has as its target cleavage stimulation factor (CstF): CstF77-CstF50-CstF64(1-195) (human) (UniProt Q12996). Put plainly: SEC. (In general: In gel filtration, larger molecules generally elute earlier.)

Substance “mammalian polyadenylation specificity factor (mPSF): CPSF160-WDR33(1-572)-CPSF30-Fip1(1-243), Q10570 1-1443; Q9C0J8 1-572; O95639-2 1-244; Q6UN15 1-243” registered a stoichiometry N of 1.

By stoichiometry N is commonly meant a count of units in the complex or per binding partner.
